A word on the Kd: it is the constant that tells how readily two partners part at equilibrium. Lower therefore signals a tighter complex. In general, koff refers to the first-order rate constant of dissociation.

Experiment [1] concerns the target FcRn-His6 (UniProt P55899). As to the kind of experiment: BLI; pH 6. As to conditions: bispecific antibody. (In general: Biolayer interferometry detects binding as a change in optical thickness at a sensor tip.)
In experiment [2] the target is Anti-NKp46_AB_H05 (human). As to the kind of experiment: BLI; antibodies loaded at 5 µg/ml on anti-human-Fc (AHC) or anti-human-CH1 (FAB2G) biosensors; antigen in solution (EGFR 3.125-200 nM; NKp46 and NKp30 1.6-100 nM) in kinetics buffer (PBS, 0.1% Tween-20, 1% BSA); 25°C; 1:1 binding model.
Chain of Anti-NKp46_AB_H05 (human) (heavy, as listed by the source, chain 1 of 2): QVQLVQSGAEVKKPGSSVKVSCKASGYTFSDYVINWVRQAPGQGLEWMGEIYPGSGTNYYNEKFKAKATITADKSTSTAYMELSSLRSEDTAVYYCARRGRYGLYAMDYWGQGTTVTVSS
Chain of Anti-NKp46_AB_H05 (human) (light, as listed by the source, chain 2 of 2): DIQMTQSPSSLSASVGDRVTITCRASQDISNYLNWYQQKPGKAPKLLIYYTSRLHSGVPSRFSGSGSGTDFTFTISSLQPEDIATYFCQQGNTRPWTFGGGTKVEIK
Experiment [3] concerns the target Anti-NKp46_AB_F06 (human). The experiment is described as above.
Experiment [4] deals with FcRn-His6 (UniProt P55899). As to the kind of experiment: BLI. As to conditions: bispecific antibody.
Chain of FcRn-His6 (P55899 24-297, chain 1 of 2): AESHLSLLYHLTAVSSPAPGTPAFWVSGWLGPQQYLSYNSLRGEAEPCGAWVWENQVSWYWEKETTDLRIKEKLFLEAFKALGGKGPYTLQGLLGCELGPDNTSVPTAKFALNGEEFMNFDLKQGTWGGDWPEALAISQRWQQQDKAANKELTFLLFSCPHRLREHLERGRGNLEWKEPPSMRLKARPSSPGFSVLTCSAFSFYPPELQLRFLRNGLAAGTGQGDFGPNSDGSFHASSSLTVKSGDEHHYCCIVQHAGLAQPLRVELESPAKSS
Chain of FcRn-His6 (partner, as listed by the source, chain 2 of 2): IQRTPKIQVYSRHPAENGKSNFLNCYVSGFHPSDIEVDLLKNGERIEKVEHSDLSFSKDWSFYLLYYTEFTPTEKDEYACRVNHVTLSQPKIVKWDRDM

Chain of Anti-NKp46_AB_F06 (human) (heavy, as listed by the source, chain 1 of 2): as the sequence (heavy, as listed by the source, chain 1 of 2) above
Chain of Anti-NKp46_AB_F06 (human) (light, as listed by the source, chain 2 of 2): as the sequence (light, as listed by the source, chain 2 of 2) above

As for Anti-NKp46_AB_F06 (from UniProt P01857), in experiment [1], the dissociation constant (Kd) was determined as 407 nM and the koff amounted to 0.0576 s⁻¹.
The corresponding values for Anti-NKp46_AB_H05 (from UniProt P01857) are 399 nM and 0.076 s⁻¹.
In the case of “human EGFR ECD-His6 (from UniProt P00533 25-645) (receptor)”, the dissociation constant Kd was found to be 37.7 nM in experiment [2] and 29.4 nM in experiment [3].
In experiment [1], Anti-NKp46_EF_H05 (from UniProt P01857) had a Kd of 392 nM and an off-rate constant (koff) of 0.0852 s⁻¹.
Regarding Anti-NKp46_EF_F06 (from UniProt P01857), the koff in experiment [1] was determined as 0.0736 s⁻¹. In addition, the Kd in experiment [4] amounted to 477 nM.

Values taken from PMC10628450.
